The results in this text go back to article PMC9531181.

In the assay the target is covalently linked hexamer of ClpX-ΔN with a single biotinylation site (ClpX6B). Kind of assay: single-molecule TIRF microscopy (dwell time); ClpX6B (10 nM, preincubated with 2 mM ATP) held by streptavidin on biotinylated BSA on DDS-Tween-20 passivated coverslips; 5 nM of ssrA (Cy3) and ssrADD (Cy5) substrates flowed in with 100 uM MTX, 2 mM ATP, 25 ug/ml BSA, Trolox and oxygen scavenger; ClpX reaction buffer (25 mM Hepes pH 7.4, 100 mM KCl, 20 mM MgCl2, 10% glycerol); 30 °C; dwell times fitted with a single exponential.

In the case of cpGFP::DHFR::polyG11::ssrA, MTX-bound, the reduction of dwell time against Ref11 came out at 50%.
